Here are results for one molecule from article PMC4201288.

This data set concerns the target T1, PaFAN1 (Pseudomonas aeruginosa, UniProt Q9I2N0 1-559).
T1 sequence: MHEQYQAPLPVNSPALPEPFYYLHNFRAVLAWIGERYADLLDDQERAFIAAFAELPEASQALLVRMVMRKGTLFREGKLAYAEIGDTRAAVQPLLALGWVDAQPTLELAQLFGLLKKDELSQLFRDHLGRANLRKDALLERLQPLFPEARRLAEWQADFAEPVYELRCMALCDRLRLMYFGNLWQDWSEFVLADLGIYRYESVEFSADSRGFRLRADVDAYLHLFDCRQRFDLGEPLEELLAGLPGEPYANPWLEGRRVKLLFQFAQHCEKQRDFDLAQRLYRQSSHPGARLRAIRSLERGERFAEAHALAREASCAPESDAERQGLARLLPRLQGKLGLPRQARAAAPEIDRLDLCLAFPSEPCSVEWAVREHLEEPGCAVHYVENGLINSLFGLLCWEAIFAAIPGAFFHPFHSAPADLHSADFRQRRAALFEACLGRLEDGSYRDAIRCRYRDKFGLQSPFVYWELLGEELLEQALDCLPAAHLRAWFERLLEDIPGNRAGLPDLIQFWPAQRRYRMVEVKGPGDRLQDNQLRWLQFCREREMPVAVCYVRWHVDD
The data set is described as follows: crystal structure.

B1: 5' flap DNA, 22-base template, 4-nt 5' flap (crystal I) (structured_DNA)
DNA 1: GAATGTGTGTCTCAATCCCAAC
DNA 2: GTTGGGATTG
DNA 3: AACCAGACACACATTC
In the case of B1, the binding result is recorded as “binds”.
